Assay results taken from patent publication US20230391828.

Tested on: T1, G3-6, Ac-cyclo(4,11)-EWWZIKEIQRXRRA-NH2
T1 sequence: EWWXIKEIQRXRRA

recombinant human APC/C (Strep-tagged APC4), expressed in SF9 cells
in vitro APC/C ubiquitination assay with different E2 enzymes (UBE2C, UBE2D, UBE2S), Ub-cyclin B1 substrate, 100 µM, 40 min: The lead molecule G3-6 (SEQ. ID. NO. 33) inhibits APC/C in vitro independently on employed E2 enzymes.
